In the supplement of paper PMC9732359:
± gives the uncertainty stated by the source.

Experiment: protein stability index of a GFP-peptide fusion (yeast GPS) (PSI 1-4); higher = more stable; sorted into four equal gates, so the index is relative within each strain
Outline: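 Each library plasmid carries Cherry plus GFP with a tiled 17-residue yeast protein peptide fused downstream, and the pooled library was carried in yeast. Mid-log cultures in leucine-free medium were sorted into four equal gates by GFP/Cherry ratio. Reads from Illumina sequencing of PCR-amplified plasmids from each gate were assigned to strains by barcodes. Per peptide, the protein stability index was computed as the summed products of gate read frequency and gate number.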

Sequence | protein stability index (doa10∆) | protein stability index (pdr5∆) | protein stability index (san1∆) | protein stability index (ubr1∆)
LEQDLHFENAKVIDLDT [YIL149C/MLP2] | 3.08 ± 0.18 | 3.32 ± 0.16 | 2.65 ± 0.23 | 3.13 ± 0.11
MISIIKLVTNVVDPKTS [YML103C/NUP188] | 1.84 ± 0.047 | 1.81 ± 0.045 | 2.04 ± 0.093 | 1.67 ± 0.035
EEELFEVTKEEDIIANY [RRP43] | 3.17 ± 0.088 | 3.08 ± 0.073 | 3.19 ± 0.11 | 3.43 ± 0.077
LVNIRTQTSKEQEIENN [ITC1] | 2.9 ± 0.054 | 3.05 ± 0.067 | 2.9 ± 0.061 | 3.06 ± 0.066
LKKELKLLAKELEEQES [SMC2] | 2.81 ± 0.088 | 3.14 ± 0.063 | 2.9 ± 0.09 | 3.31 ± 0.07
EEKSNEVKTPKIPLFTF [SIR4] | 2.82 ± 0.061 | 2.94 ± 0.065 | 2.57 ± 0.048 | 2.79 ± 0.047
LNELSAKDKEIYNKMIG [RPN13] | 2.8 ± 0.092 | 2.65 ± 0.11 | 2.2 ± 0.11 | 2.83 ± 0.082
FQIDNDNIRYATALQTC [SMC2] | 1.8 ± 0.052 | 1.78 ± 0.047 | 1.45 ± 0.073 | 1.74 ± 0.052
VEAGMIALRNGQSSVKH [RPT5] | 2.87 ± 0.14 | 2.9 ± 0.16 | 2.79 ± 0.11 | 2.6 ± 0.11
TLLIAIRGSNRDLKPSN [YML103C/NUP188] | 1.92 ± 0.18 | 2.41 ± 0.13 | 2.52 ± 0.098 | 2.8 ± 0.087
QLKTGLAAIVSTVIEEF [YGL172W/NUP49] | 2.93 ± 0.094 | 2.79 ± 0.08 | 2.83 ± 0.1 | 3.04 ± 0.076
RITKSNEKSQAEQEKAK [LRP1] | 1.9 ± 0.075 | 1.33 ± 0.067 | 1.48 ± 0.18 | 1.25 ± 0.14
GVYKRDNRTKSTTIKNI [SMC4] | 1.62 ± 0.06 | 1.54 ± 0.062 | 1.33 ± 0.14 | 1.23 ± 0.075
NVTGGKAANFIQNQSPQ [SWI1] | 2.77 ± 0.062 | 2.79 ± 0.063 | 2.87 ± 0.051 | 2.99 ± 0.047
TSSAPAQNQGMFGAKPA [YGL172W/NUP49] | 2.44 ± 0.11 | 2.75 ± 0.089 | 1.92 ± 0.14 | 2.79 ± 0.069
SLKGYKIENSVQIGAEI [CSI1] |  | 3.21 ± 0.2 | 3.25 ± 0.13 | 3.17 ± 0.17
ATPQDAQFYLGKRIAYV [RPL33A] | 2.29 ± 0.082 | 2.66 ± 0.07 | 2.57 ± 0.074 | 2.7 ± 0.075
DEDDDQPMISPDNSIFG [SWI3] | 3.22 ± 0.078 | 3.35 ± 0.083 | 3.2 ± 0.086 | 2.94 ± 0.088
YKLVNKNKENNTFTWNH [RPN4] | 2.65 ± 0.23 | 3.49 ± 0.27 | 3.09 ± 0.082 | 3.12 ± 0.21
